Assay results from publication PMC11261779, “Structural studies of WDR5 in complex with MBD3C WIN motif reveal a unique binding mode” (The Journal of Biological Chemistry, 2024).

Target: WD repeat-containing protein 5 (WDR5), truncated construct, residues 24-334 (mouse, UniProt P61965 24-334)
Assay: ITC; peptide (0.5 to 1.0 mM) titrated into WDR5 protein (44.5 μM) in the cell; 20 °C; Buffer D (20 mM Tris-HCl, 200 mM NaCl, pH 7.5); single binding site model
Settings: both partners purified

Kd	dH	stoichiometry N	Binder
130 ± 20 nM	-11.4 ± 0.13 kcal/mol	1.06	GAARCRVFSPQG (numbers count on: isoform MBD3C; also called MBD3C peptide; MBD3C WIN motif; source: synthetic peptide (GenScript)) [MBD3C_(40-51) peptide (methyl-CpG binding domain 3 isoform C, WIN motif)]
1310 ± 210 nM	-15 ± 0.52 kcal/mol	1.17	GAAKCRVFSPQG (numbers count on: isoform MBD3C; also called MBD3C^R43K; source: synthetic peptide (GenScript)) [MBD3C_(40-51) (R43K) peptide]
670 ± 60 nM	-7.49 ± 0.08 kcal/mol	1.25	GAARCEVFSPQG (numbers count on: isoform MBD3C; also called MBD3C^R45E; source: synthetic peptide (GenScript)) [MBD3C_(40-51) (R45E) peptide]
1010 ± 40 nM	-7.8 ± 0.04 kcal/mol	0.99	GAARCRVHSPQG (numbers count on: isoform MBD3C; also called MBD3C^F47H; source: synthetic peptide (GenScript)) [MBD3C_(40-51) (F47H) peptide]
650 ± 30 nM	-7.32 ± 0.05 kcal/mol	1.34	GAARCRVASPQG (numbers count on: isoform MBD3C; also called MBD3C^F47A; source: synthetic peptide (GenScript)) [MBD3C_(40-51) (F47A) peptide]

Target: WDR5 (residues 24-334) D107S (mouse, UniProt P61965 24-334, D107S)
Assay: as above
Settings: both partners purified

Kd	dH	stoichiometry N	Binder
10800 ± 1030 nM	-5.4 ± 0.17 kcal/mol	1.34	GAARCRVFSPQG (numbers count on: isoform MBD3C; also called MBD3C peptide; MBD3C WIN motif; source: synthetic peptide (GenScript)) [MBD3C_(40-51) peptide (methyl-CpG binding domain 3 isoform C, WIN motif)]
